Experimental data as given in the DeepSol protein solubility set.

Assay: soluble on expression in E. coli; label from the status in PepcDB or PDB records

Sequence	soluble on expression in E. coli
MSLTDNSKIRVVVGMSGGVDSSVTALLLKEQGYDVIGVFMKNWDDTDEFGVCTATEDYKDVAAVADKIGIPYYSVNFEKEYWDRVFEYFLAEYRAGRTPNPDVMCNKEIKFKAFLDYAMTLGADYVATGHYAQVKRDENGTVHMLRGADNGKDQTYFLSQLSQEQLQKTLFPLGHLQKSEVREIAERAGLATAKKKDSTGICFIGEKNFKQFLSQYLPAQKGRMMTIDGRDMGEHAGLMYYTIGQRGGLGIGGQHGGDNQPWFVVGKDLSQNILYVGQGFYHEALMSNSLDASVIHFTREMPEEFTFECTAKFRYRQPDSHVAVHVRGDKAEVVFAEPQRAITPGQAVVFYDGKECLGGGMIDMAYKNGQPCQYIEGHHHHHH	soluble
MSLTDRLRATYRVKATAASIEARAKGIAVEQSVEMPLSAIDDPAVLDGIVGVVEEITERGEDCFEVRLALSTATIGGDAGQLFNMLFGNTSLQDDTVLLDIDLPDDLLASFGGPNIGAAGLRARVGASADRALTCSALKPQGLPPDRLADLARRMALGGLDFIKDDHGMADQAYAPFASRVGAVAAAVDEVNRQTGGQTRYLPSLSGHLDQLRSQVRTGLDHGIDTFLIAPMIVGPSTFHAVVREFPGAAFFAHPTLAGPSRIAPPAHFGKLFRLLGADAVIFPNSGGRFGYSRDTCQAVAEAALGPWGGLHASLPVPAGGMSLARVPEMIATYGPDVIVLIGGNLLEARDRLTEETAAFVASVAGAASRGCGLAEGHHHHHH	soluble
MSLTDVSRILKEARDQGRLTTLDYANLIFDDFMELHGDRHFSDDGAIVGGLAYLAGQPVTVIGIQKGKNLQDNLARNFGQPNPEGYRKALRLMKQAEKFGRPVVTFINTAGAYPGVGAEERGQGEAIAKNLMEMSDLKVPIIAIIIGEGGSGGALALAVADQVWMLENTMYAVLSPEGFASILWKDGSRATEAAELMKITAGELYKMGIVDRIIPEHGYFSSEIVDIIKANLIEQITSLQAKPLDQLLDERYQRFRKYEGHHHHHH	not soluble
MSLTEPDSKPKKGRAGRKKAEPVRPPEQFLELAELLDYVGQVIARGVPGGVWVRAEIASLTDRRHLYLDLVQAGEGGAGGVGEVAKCRATVWARERFALEAKFRGATSGATLSAGLKVLLFGTAEFHPQYGFSFNVLDISPEYTLGDAALRLEAMRAELVAEGSYGLNRLLPVPTDFARVAVIAPREAAGLGDFRREADPLEAAGLVEFHYLEATFQGREAGASLLRAVAAARELHQEKALDALFVIRGGGAVTDLAWLNDLELARALATFPAPVVTGLGHARDDTLPDEVACLRTDTPSKAAAYLVRTVVNAAAQAQEAARTIRAEAARVLVEAEAAAAWARDRALSSAVRRVDAAAAEVDALMRQALGLTPQRTLARGYALVRDAAGQPVTRAAGARAGEPLTLEWSDGSVEGHHHHHH	soluble
MSLTERLSPVEIMGALVAFPTVSRDTNLPLVDWVETYLAGHGITAHRWVDPEQPHKAALFAHVGPWEEGAVVLSGHTDVVPIDGQPWDSDPFTVVERDGKYFGRGTCDMKGFDALAIWALVEGRYRDLKRPLQLALSFDEEVGCTGAPPMIVEMQNHLPKGSAVIVGEPSMMQAVTGHKGGFGYDTRVLGFEVHSSIMHTGVNAIMAAAPLIDWANHRNAENRAATPSALAAMFDPPWTTCHVGMISGGTAHNITAKECRFAMDFRIVPGEAKERWRDAYFAVAREVEAQMQAVHPEARIDLSEQFHVPPLVPEQEGEAEMLVRALTGDNAGHVVSYGTEAGQFQEAGYSAVICGPGDIAQAHQPNEFITVAQFDAGHGFMARLLDRLSEGHHHHHH	soluble
MSLTFDFFEGPAGSGKTFSMVAHARQLIESDALGEGQRMLALTFMNGARRRLTSNLNAEASFRRKFDCLTFDSFAQSLAKRRSAKLTDEMRQQAEELGQFHGPCFLACELLNDVEVRRWVARTYPLVLVDEAQDLDVHRQGIVLGLKECCTTVVAADSFQCLSDGQETADFIDRLLRAGTTHTLTQSHRTNKAGLLAAALAVRNGEDIRAVLNEEAIGKTNRVHWIGEGIELVEVPATARNSGLLAWNLAFQLRLGSDDVALLTPDSANTIIRNAIGTVASKQRPWPHNAFSVSWEGGDSSVADELAEAIGFPDTAPYDEVCALLEEHSAQPMVKTVIRRIRRLQRVTGQSEFEKAQLVSFISDAVRTNTRLGFKKSAKIKAMSIHGAKNREFDRVIVLWPQSATGSDEHKRRLLYNAMTRTKNHCTVIVLGTGRLNSAPFAEGHHHHHH	soluble
MSLTGQAEAPFIRHGYFKFADGVIVSVAEGTPSPEEIDRVEVIDGKGKWVMPGMINTHGHLGMSLLRGHSDDLPLQSWLTEKMWPFEGKMDREAVHHARQLAMAEMIKSGTTTFLEMYHLYMDDLAEAVVEQGPRAVLMRSMIGLCSESEQREKLKEAVTFATTWNGDGNGRITTMMAPHAPYTCPPSFIEMIVDEADRIDLPLHTHMAETQREVEEHRKTYGVHPLVHFEQLGFLKDRHWLLAHCVHLGEEELDILEQHPSVHVSHNPMSNLKLGSGIANVQSMLERGINICLGTDSVASNNHLDLVEEMRIAALLQKGAVLDPTAIPAETAIAMATKNGAKALRLPQVGTIEAGKRADFIMIDPQCLHLQPHEHVMSHLVYALKGADVQDVFVEGAPLMLNKELKTFDEEKLQFEANAHYQRICEKLKEGHHHHHH	not soluble
MSLTIIHPLLASRSAPNYRQSWRLAGVWRRAINLMTESGELLTLHRQGSGFGPGGWVLRRAQFDALCGGLCGNERPQVVAQGIRLGRFTVKQPQRYYLLRITPPAHPQALAVAWMQRAEETGLFGPLALAASDPLPAELRQFRHCFQAALNGVKTDWRHWLGKGPGLTPSHDDTLSGMLLAAWYYGALDARSGRPFFACSDNLQLVTTAVSVSYLRYAAQGYFASPLLHFVHALSCPKRTAAAIDSLLALGHTSGADTLLGFWLGQQLLQGKEGHHHHHH	soluble
MSLTIVAPMDEILERAHVVALPMRVKFRGIMVREAVLFDGPKGWGEFSPFVEYGVQEAAQWLRCGLEMAFQGPPPMIRDAVEVNATIPAVSPDQVPEILARYPGCTTVKVKVAEGDDAARVAMVREVLPDARIRVDANRGWTVDQAVAASKHLGELEYMEQPCASVAELAELRRRISVPIAADESIRRVSDPYEVARLHAADVAVVKAAPLGGPRNIVDIAKFYQQRGLSLTVASALDTGVGMNAGIAVAAAIDSNPAGLATQRLFVEDVTEPRTIVDGKMSVEMLAPDPARLAEFEVTGPRRDWWLDRVRGALECLHDFIPEGHHHHHH	soluble
MSLTIYHPAELPQRQAEKSPNKTIIKYYDRESKQWRNISWSKFAAGVMNAAKALAEIGLESGERIGIYSPNMVHCLYTELGAFAMRGVVVPLYATSSPEQLRFIVEDSSMETLFVGEQFQYNNAYRVQKEYGTLKRIVVFDERVVLNPEDKTSKYFSEFVRLGDSMPNETKVKVSSREAIPSDPALIIYTSGTSGRSKGVLLLHSNLMYQMKVHSEHIPVYGPGELSIAFLPMSHIFEKAWTLFCLTTGTRIAILRDPKKVLEALPQIRPSLMCNVPRFWEKVYQGVNEKMASSPRILKGVYRRAMAVGQRYRLDYWNEGKRAPLLLSMQYAFYNCTIFTLLKRVLGLQRGRYFPTAGAPLSDEINIFLQSVNIPIIVGYGLSETTATVSFYPQRGFKIGSMGKVMPGLDARIDPDNNEILVKGESVMSEYYNLPEETAGAFTPDGYFRTGDAGRMDPDGTLYFLERIKDLYKTANGKYIAPQMIEGMLTKDPIIEQIAVIGDRFKYVSALVYPNWELVRQAAIKRGLEQAREGHHHHHH	not soluble
MSLTKKELPLDGLIPYCEQCGDFRFPVFSVAVSMIVMNEGGDQVLLIKQYWKDSYILVAGYVNKGENAEDSCRRELMEELHLTAKSLHFNRSQYFAPSNTLMLNYTVTVDQAEKVSPNEEIDAWNWLSIDEARRQIRPNSLARTFLLEYLNKCKLHREGHHHHHH	soluble
MSLTKLIVICGATATGKSGLALNLAMRLGSVILSADSRQVYREFDIGTAKPTLAEQRAVPHYLIDICAPRETMTVADYQEQAQALINSLPVSPLLLVGGTGLYIRSIVQGMKIPRVAPNYELRSQLASLGQTTLYGILQQVDPIAAQKIHPNDPVRTLRAVEVFYITGIPISAQQGENPPDYPILQIGLDCEMERLTERIHKRTEQMITDGLVGEVEYLCQKYGAELPLLNTLGYQEIKQYLTGEISLEAAKELTVLHTRQFAKRQRTWFRASPQIEWFNADHPDLLDIVCQHIQQPEGHHHHHH	soluble
MSLTKMRESEIIRMFIEEFDNHALGDDAGFVRFNDSWLLVTSDMLVWRTDVPDFMTPEEAGKKVVTMNVSDIAAMGGLPLAFFFSLGVPENTDEKTLRGIAKGINKGAKEYGVKIVSGDTNEAREIIIDGGAIGRGSRLLLRSNAKPGDLVCVTGELGRPLTALLLWLKGEEIPPKILEKAKNPKAREREGIELSNYANSAIDISDGLSKELWEIARSSNVRIVIDEDKIPVNEEVREIVKDPIKIALASGEEFELVFTIPKENLGNISFDFTIIGRVEEGEGVYIKREDKMERLPILGWEHLKGGDYVNLEGHHHHHH	soluble
MSLTLFHAPRSRSTRIVTLLRELDAIDKVAIKIVDITRGDGSGRKDPKNLHPEGKVPLLDHDGVVIWESIAIIQYLTDLFPEKKMAPVAGDPQRGRYLSWLAWYAGVVEPVLIMQAAGISHPFVDFTFRSPAELAARLETALKDCPYLMGERYTAVDLLLHSPFAWCPAATPESDVVKAWIERCGERPSLQWTANYDACTVVAEGHHHHHH	soluble
MSLTNFVGSVLEATKEAIRALNPQNSTIYESLMVGAGGDVSLKADLMCEEILSARLRHFGHIHSEESGLIEGESQDIIYLDPLDGSTNLSSLIPYYGTSVALCDPEGRTKAAAVINFCSGETFIKTDAFALHGSIWQPIDTFVPIRPLEHASKIGIFEGSHRNAPWVLGLHQKGLKFRSPGAIALSMAYAHNVSFVLFDGEIREYDTKAGLFLCSDLHIHHDERALLISRDPIIFENLLELISQKGEGHHHHHH	soluble
MSLTNLDFHIVKRIRQRIAQGGDNAALKHKQNGQWQAINWHQFGEQLDELSMALLAQGIGVQDKIAIFSNNMPRWTIADFAALQIRAVTVPIYPTNTPEQAAYILQNADVKVVFVGEQAQFDAALSQFEQCPELRLIVAMNANIDLKQASCAMHWDEFVAQSHHQDRAPLDALIEQANYDDLFTLIYTSGTTGTPKGVMLDYRNIGAQLEGHDQRLNLTQEDVSLCFLPLSHVFERAWTAYVLYKGATNCYLQDVAHVREALAEVRPTVMCAVPRFYEKIFSAIHEKVVKAPLVRKVLFTWAVNMGAKMAVCRQQQRQPSWMLKQSHQFADKLVLSKLRALLGGRINFMPCGGAKLDETIGRFFHAIGINVKLGYGMTETTATVSCWDDHCFNPDSIGLSMPGAQVKIGENNEILVRGPMVMRGYYKLDKETTESFDEQGFLKTGDAGHIDENGNLFITDRIKELMKTSGGKYIAPQVIEGAIGKDHFIEQIAVIADTRKFVSALIVPCFDSLEEYAKELNIKYHDRLELIKHSQVLEMFEKRVNELQKELAKFEQVKKFRLLPKAFSMDSGELTPTQKLRREGHHHHHH	soluble
MSLTNNVIHLIPEIERILRIKYDDKQKELFYKINENNILVLTGFAGTGKSSVLNGLLNLFDKKNITYKLMSPTAKAAKRMEECTGKKASTIHRALGLAEGKFLVNEKNPFAEDVIIIDETSMVDIYLFLAVLKGIKNTTKLLCLGDYGQLESISAGNVLFDMIQGGIPCVKLEKIFRQKEDSSLLNVITNIRNGDNPLKNTHKTYLELGRDCKFWLGKKEQTLSRVLLCYKECLKHFSREDIMVLCPMKKGNSGVNKLNQELQKIANSQNTEELKLKDCAYKKEDLVMHIKNDYNANIFSEDCKDTIAKGIFNGDAGKIEKIDLENQKLYVSYDSGIVEYDNSNLNELMLSYALTIHKVQGSQSKVVIVALDMSHYKMLKRSLLYTAASRCVELLIFICDPKAFSIALNNNQVTHKNTFLGELLKISEGHHHHHH	not soluble
